Assay [1] has as its target T1, Human adenovirus serotype 7 fiber knob, His-tagged (His-HAd7K), wild type (human adenovirus serotype 7 (HAdV7), …).
T1 chain: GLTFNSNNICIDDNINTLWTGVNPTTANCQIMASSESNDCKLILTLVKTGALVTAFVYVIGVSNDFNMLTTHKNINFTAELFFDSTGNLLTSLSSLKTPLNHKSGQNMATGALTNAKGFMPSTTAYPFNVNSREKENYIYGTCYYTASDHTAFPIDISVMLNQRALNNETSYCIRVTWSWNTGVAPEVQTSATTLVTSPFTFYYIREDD
The assay is described as follows: cryo-EM structure. The settings on record: both partners purified.

The target in assay [2] is T2, Human adenovirus serotype 7 fiber knob, His-tagged (His-HAd7K), wild type (human adenovirus serotype 7 (HAdV7), …, N-glycosylated (sugars almost 15% of the total mass by mass spectrometry) / Wild-type trimeric knob; N-terminal His tag and GSHM omitted. The printed limits D87-P273 do not fit the paper's own residue).
T2 chain: T1 chain
Nature of the assay: cryo-EM structure. The note with it: both partners purified.

In assay [3] the target is T3, Human adenovirus serotype 7 fiber knob, His-tagged (His-HAd7K), wild type (human adenovirus serotype 7 (HAdV7), …).
T3 chain: T1 chain
Nature of the assay: BLI.

For assay [4], the target named is T3, Human adenovirus serotype 7 fiber knob, …. The assay is described as follows: BLI.

Several values for one entry are separate records, joined by “and”; a condition that tells them apart may be missing. Equal values may be shown once.

B1: Human adenovirus serotype 7 fiber knob, His-tagged (His-HAd7K), wild type (domain or fragment)
chain: T1 chain
modifications: Wild-type trimeric knob; N-terminal His tag and GSHM omitted. The printed limits D87-P273 do not fit the paper's own residue numbering (V300 and P302 are present in the knob), so the deposited knob …
With B1, the “stoichiometry N” value in assay [1] is 3.

B2: EC2-EC3 domains of desmoglein-2 (EC23 module), glycosylated (domain or fragment, UniProt Q14126 149-386, looked up)
chain: VLDINDNEPVFTQDVFVGSVEELSAAHTLVMKINATDADEPNTLNSKISYRIVSLEPAYPPVFYLNKDTGEIYTTSVTLDREEHSSYTLTVEARDGNGEVTDKPVKQAQVQIRILDVNDNIPVVENKVLEGMVEENQVNVEVTRIKVFDADEIGSDNWLANFTFASGNEGGYFHIETDAQTNEGIVTLIKEVDYEEMKNLDFSVIVANKAAFHKSIRSKYKPTPIPIKVKVKNVKEGI
notes: also called EC2-EC3 module; EC23 module of DSG2
As to B2, the “stoichiometry N” value in assay [2] was 2 EC23 modules per HAd7K trimer and 3 EC23 modules per HAd7K trimer.

B3: Desmoglein-2 (DSG2), non His-tagged, Leinco Technologies (receptor)
chain: AWITAPVALREGEDLSKKNPIAKIHSDLAEERGLKITYKYTGKGITEPPFGIFVFNKDTGELNVTSILDREETPFFLLTGYALDARGNNVEKPLELRIKVLDINDNEPVFTQDVFVGSVEELSAAHTLVMKINATDADEPNTLNSKISYRIVSLEPAYPPVFYLNKDTGEIYTTSVTLDREEHSSYTLTVEARDGNGEVTDKPVKQAQVQIRILDVNDNIPVVENKVLEGMVEENQVNVEVTRIKVFDADEIGSDNWLANFTFASGNEGGYFHIETDAQTNEGIVTLIKEVDYEEMKNLDFSVIVANKAAFHKSIRSKYKPTPIPIKVKVKNVKEGIHFKSSVISIYVSESMDRSSKGQIIGNFQAFDEDTGLPAHARYVKLEDRDNWISVDSVTSEIKLAKLPDFESRYVQNGTYTVKIVAISEDYPRKTITGTVLINVEDINDNCPTLIEPVQTICHDAEYVNVTAEDLDGHPNSGPFSFSVIDKPPGMAEKWKIARQESTSVLLQQSEKKLGRSEIQFLISDNQGFSCPEKQVLTLTVCECLHGSGCREAQHDSYVG
modifications: Wild-type trimeric knob; N-terminal His tag and GSHM omitted. The printed limits D87-P273 do not fit the paper's own residue numbering (V300 and P302 are present in the knob), so the deposited knob entity (same as 3EXW) with the last shaft repeat is used. Entity position = fiber number - 112 (D265=153, F269=157, N192=80), an offset inferred by assuming a 325-residue fiber and comparing with HAd3K.
B3 gave a koff in assay [3] of 0.000112 s⁻¹. Besides, in assay [4], binding was put at a Kd of 4.04 nM.
